Data from PMC11095456.

Target: CTBP2 MAPPIT prey, wild type (UniProt P56545)
Assay: MAPPIT
Conditions: HEK293T cells; +Epo; cotransfected with CTBP2; parent: est. 32; read off a plot; scale: % of maximum induction

Substance | response
EVI1 MAPPIT bait, wild type PFDLT>PFAST | 30
EVI1 MAPPIT bait, wild type PFDLT SWAP | 3

The remaining lines, values ahead:

response | Substance
3 | EVI1 MAPPIT bait, wild type PLDLS>PLASS
5 | EVI1 MAPPIT bait, wild type PLDLS SWAP

Target: EVI1 MAPPIT bait, wild type
Assay: MAPPIT
Conditions: HEK293T cells; +Epo; cotransfected with EVI1; parent: est. 29; read off a plot; scale: % of maximum induction

response | Substance
10 | CTBP2 MAPPIT prey, wild type (from UniProt P56545) A58E; V72R
29 | CTBP2 MAPPIT prey, wild type (from UniProt P56545) A58E
11 | CTBP2 MAPPIT prey, wild type (from UniProt P56545) V72R
